Measured values taken from patent US20090214428A1 (HENRY M JACKSON FOUNDATION FOR THE ADVANCEMENT OF MILITARY …, published 2009).
Read-outs that look alike come from different tables or passages of the source.

What was measured:
[1] = biological target: T1, soluble Hendra virus G glycoprotein (sG) (Hendra virus, UniProt O89343 71-604)
T1 sequence: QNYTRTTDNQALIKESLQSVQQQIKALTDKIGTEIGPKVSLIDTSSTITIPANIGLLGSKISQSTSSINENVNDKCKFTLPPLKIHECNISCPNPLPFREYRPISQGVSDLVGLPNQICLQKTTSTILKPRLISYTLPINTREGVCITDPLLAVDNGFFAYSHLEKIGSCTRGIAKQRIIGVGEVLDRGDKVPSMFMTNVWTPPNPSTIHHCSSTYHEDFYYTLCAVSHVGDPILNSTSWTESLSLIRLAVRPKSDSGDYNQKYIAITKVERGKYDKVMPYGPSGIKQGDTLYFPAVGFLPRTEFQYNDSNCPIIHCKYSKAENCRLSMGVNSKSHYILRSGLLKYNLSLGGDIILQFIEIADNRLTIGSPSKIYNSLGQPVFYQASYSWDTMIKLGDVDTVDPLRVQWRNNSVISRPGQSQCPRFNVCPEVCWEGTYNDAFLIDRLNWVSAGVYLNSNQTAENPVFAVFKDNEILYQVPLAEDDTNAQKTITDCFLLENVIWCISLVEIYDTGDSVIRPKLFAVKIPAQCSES

[2] = biological target: T1, soluble Hendra virus G glycoprotein (sG); assay: ELISA, purified soluble Fab on coated sG
[3] = biological target: T1, soluble Hendra virus G glycoprotein (sG); assay: SPR (Biacore); upper end of the range told of the group, tied to m103 by Table 5
[4] = biological target: T1, soluble Hendra virus G glycoprotein (sG); assay: SPR (Biacore 1000), sG immobilised on CM5, Fab injected, 25 C, 1:1 Langmuir fit
[5] = biological target: T2, HeV G envelope glycoprotein (on effector cells expressing HeV F and G, or on infectious HeV) (Hendra virus, UniProt O89343 1-604); assay: cell-based or functional assay
T2 sequence: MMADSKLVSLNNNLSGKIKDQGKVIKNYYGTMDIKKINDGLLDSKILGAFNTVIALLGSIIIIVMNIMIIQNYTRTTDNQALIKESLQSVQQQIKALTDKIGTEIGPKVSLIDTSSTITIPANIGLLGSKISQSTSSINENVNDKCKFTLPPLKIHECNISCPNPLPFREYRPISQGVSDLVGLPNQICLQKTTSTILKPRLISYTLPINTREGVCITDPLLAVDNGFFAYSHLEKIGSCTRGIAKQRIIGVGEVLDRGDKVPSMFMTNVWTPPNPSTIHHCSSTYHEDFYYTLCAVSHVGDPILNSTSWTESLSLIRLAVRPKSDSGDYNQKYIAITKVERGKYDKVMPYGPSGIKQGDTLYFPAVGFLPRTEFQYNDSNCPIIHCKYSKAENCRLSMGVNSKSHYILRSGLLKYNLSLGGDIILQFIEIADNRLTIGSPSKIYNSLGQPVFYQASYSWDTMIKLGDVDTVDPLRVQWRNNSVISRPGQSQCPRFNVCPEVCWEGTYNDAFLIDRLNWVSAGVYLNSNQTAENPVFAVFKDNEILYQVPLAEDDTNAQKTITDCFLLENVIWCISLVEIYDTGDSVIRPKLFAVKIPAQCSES

B1: Fab m103 (Fab, V domains shown)
VH: EVQLVESGGGLIQPGGSLRLSCAASGFTVSSNYMSWVRQAPGKGLEWVSVIYSGGSTYYADSVKGRFTISRDNSKNTLYLQMNSLRAEDTAVYYCARDSRYHDAFDIWGQGTMVTVSS
VL: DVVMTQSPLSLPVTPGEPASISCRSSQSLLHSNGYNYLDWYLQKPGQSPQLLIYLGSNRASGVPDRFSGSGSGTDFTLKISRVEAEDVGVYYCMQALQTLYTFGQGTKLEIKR
Q: For B1, which Kd [1] is on record?
A: 1800 nM

Q: And the A450 [2]?
A: 0.8 A450

Q: And the Kd [3]?
A: 1000 nM

B2: Fab m104 (Fab, V domains shown)
VH: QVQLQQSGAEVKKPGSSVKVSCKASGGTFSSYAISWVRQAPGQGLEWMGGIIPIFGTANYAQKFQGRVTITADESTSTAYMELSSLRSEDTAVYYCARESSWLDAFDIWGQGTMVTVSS
VL: DVVMTQSPLSLSVTAGEPASISCRSSQSLLHSNGHIYLDWYLQKPGQSPQLLIYMASNRASGVPDRFSGSGSGTDFTLRINRVETEDVGIYYCMQSLHTTRTFGQGTKVEIKR
Q: Which A450 [2] does the source give for B2 here?
A: 0.7 A450

Q: And the Kd [4]?
A: 600 nM

Q: What about the koff [4] of the same binder?
A: 0.0016 s⁻¹

Q: What about the kon [4] of the same binder?
A: 3000 M⁻¹ s⁻¹

B3: Fab m113 (Fab, V domains shown)
VH: QVQLQQSGAEVKKPGSSVKVSCKASGGTFSSYAISWVRQAPGQGLEWMGWTNPNSGGTNYAQKLQGRVTMTTDTSTSTAYMELRSLRSDDTAVYYCANYKLQSDAFDIWGQGTMVTVSS
VL: DIQMTQSPSSLSASVGDRVTITCRASQDIGNFLVWFQQKPGKAPKSLIYAASRLQSGVPSRFSGSGSGTDFTLTISSLQPEDFATYYCQHYKSYPLTFGGGTKVEIKR
Q: How did the A450 [2] turn out when B3 was run?
A: 0.1 A450

B4: Fab m109 (Fab, V domains shown)
VH: QMQLQQWGAGLLKPSETLSLTCAVYGGSFSGYYWSWIRQPPGKGLEWIGEINHSGSTNYNPSLKSRVTISVDTSKNQFSLKLSSVTAADTAVYYCARGWFRDWYFDLWGRGTLVTVSS
VL: DIQMTQSPSSLSASVGDRVTITCRASQDIRNDLGWYQQRPGKAPKLLIYAASSLQSGVPSRFSGSGSGTDFTLTISSLQPEDSATYFCLQDYQYPWTFGQGTKVEIKR
Q: For B4, which A450 [2] is on record?
A: 0 A450

B5: Fab m115 (Fab, V domains shown)
VH: QVQLQQSGAEVKKPGSSVKVSCKASGGTFRSYAISWVRQAPGQGLEWMGGIIPIFGTANYAQKFQGRVTITADESTSTAYMELSSLRSEDTAVYYCARGSQSYDHYYYYGMDVWGQGTTVTVSS
VL: QSALTQPASVSGSPGQSITISCTGTSSDVGGYNYVSWYQQHPGKAPKLMIFDVSNRPSGVSNRLSGSKSGNTASLTISGLQAEDEADYYCSSYTSNTVVFGGGTKLTVL
Q: How did the A450 [2] turn out when B5 was run?
A: 0.4 A450

B6: Fab m101 (Fab, V domains shown)
VH: QVQLVQSGAEVKKPGASVKVSCKASGGTFSSYAISWVRQAPGQGLEWMGGIIPIFGTANYAQKFQGRVTITADESTSTAYMELSSLRSGDTAVYYCARDPGGYSYGPYYYYYGMDVWGQGTTVTVSS
VL: DIQMTQSPSSVSASVGDRVTITCRASQGIGPWLAWYQQKPGKAPKFLIYRASTLQSGVPSRFSGSGSGTDFTLTISSLQPEDFATYYCQQAHSFPFTFGPGTKVDIKR
Q: What does the source list for B6?
A: IC50 of HeV Env-mediated cell fusion, reporter gene assay, PCI-13 target cells [5]: 38 µg/mL; A450 [2]: 1 A450; Kd [4]: 28 nM; koff [4]: 0.0035 s⁻¹; kon [4]: 130000 M⁻¹ s⁻¹

B7: IgG1 m101 (antibody, V domains shown)
VH: QVQLVQSGAEVKKPGASVKVSCKASGGTFSSYAISWVRQAPGQGLEWMGGIIPIFGTANYAQKFQGRVTITADESTSTAYMELSSLRSGDTAVYYCARDPGGYSYGPYYYYYGMDVWGQGTTVTVSS
VL: DIQMTQSPSSVSASVGDRVTITCRASQGIGPWLAWYQQKPGKAPKFLIYRASTLQSGVPSRFSGSGSGTDFTLTISSLQPEDFATYYCQQAHSFPFTFGPGTKVDIKR
Q: For B7, which “IC50 of HeV Env-mediated cell fusion, reporter gene assay, PCI-13 target cells” value [5] is on record?
A: 1.2 µg/mL

B8: Fab m111 (Fab, V domains shown)
VH: QVQLVQSGAEVKKPGATVKISCKVSGYTFTDYYMHWVQQAPGKGLEWMGLVDPEDGETIYAEKFQGRVTITADTSTDTAYMELSSLRSEDTAVYYCATEGADYWGQGTLVTVSS
VL: DVVMTQSPLSLPVALGQPASISCRSSQSLVHSDGNTYLNWFQQRPGQSPRRLLYKVSNRESGVPDRFSGSGSGSDFTLKISRVEAEDVGIYYCMQGTHWPPITFGQGTRLEIKR
Q: How did the A450 [2] turn out when B8 was run?
A: 0 A450

B9: Fab m112 (Fab, V domains shown)
VH: QVQLVQSGAEVKKPGATVKISCKVSGYTFTDYYMHWVQQAPGKGLEWMGLVDPEDGETIYAQKFQGRVTITADTSTNTAYMELSSLRSEDTAVYYCATDGADYWDQGTLGTVST
VL: QSVLTQPPSVSGAPGQTVTISCTGSSSNIGGDSDVHWYQQLPGSAPKLLIYGNRNRPSGVPDRFSGSRSGTSASLAVIGVQADDEADYYCQCYDSSLNGYVFGPGTKVIVL
Q: Which A450 [2] does the source give for B9 here?
A: 0.4 A450

B10: Fab m107 (Fab, V domains shown)
VH: EVQLVQSGAEVKKPGASVKVSCKASGYTFTGYYMHWVRQAPGQGLEWMGIINPSGGSTSYAQKFQGRVTMTRDTSTSTVYMELSSLRSEDTAVYYCARDHVHGPDAFDIWGQGTMVTVSS
VL: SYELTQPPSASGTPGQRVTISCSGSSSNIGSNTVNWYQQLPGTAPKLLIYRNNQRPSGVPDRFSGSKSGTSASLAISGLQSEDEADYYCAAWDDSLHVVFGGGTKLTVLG
Q: B10 was tested. Which A450 [2] did it give?
A: 0.6 A450

Q: What about the Kd [4] of the same binder?
A: 78 nM

Q: And the koff [4]?
A: 0.0022 s⁻¹

Q: And the kon [4]?
A: ~30000 M⁻¹ s⁻¹

B11: Fab m106 (Fab, V domains shown)
VH: QVQLQQSGAEVKKPGSSVKVSCKASGGTFSSYAISWVRQAPGQGLEWMGGIIPIFGTANYAQKFQGRVTITADKSTSTAYMELSSLRSEDTAVYYCARDQLAGYYYDSSGYHYYYYGMDVWGQGTTVTVSS
VL: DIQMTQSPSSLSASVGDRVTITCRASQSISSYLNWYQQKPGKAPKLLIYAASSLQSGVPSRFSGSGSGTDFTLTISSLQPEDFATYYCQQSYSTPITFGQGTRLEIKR
Q: What does the source list for B11?
A: A450 [2]: 1.6 A450; Kd [4]: 54 nM; koff [4]: 0.0033 s⁻¹; kon [4]: 62000 M⁻¹ s⁻¹

B12: Fab m108 (Fab, V domains shown)
VH: EVQLVESGGGLVKPGGSLRLSCAASGFTFSDYYMSWIRQAPGKGLEWVSYISSSGSTIYYADSVKGRFTISRDNAKNSLYLQMNSLRAEDTAVYYCARVGGAFDIWGQGTMVTVSS
VL: NFMLTQPHSVSGSPGKTVTISCTRSSGSIASNYVQWYRQSPGSAPTTVIYEGYQRPSGVPDRFSGSIDSSSNSASLTISGLETEDEADYYCQSYDATNHQVVFGGGTKLTVL
Q: How did the A450 [2] turn out when B12 was run?
A: 0.5 A450

B13: Fab m105 (Fab, V domains shown)
VH: QVQLVQSGGGVVQPGRSLRLSCAASGFTFSSYAMHWVRQAPGKGLEWVAVISYDGSNKYYADSVKGRFTISRDNSKNTLYLQMNSLRAEDTAVYYCARVGGITGTADAFDIWGQGTMVTVSS
VL: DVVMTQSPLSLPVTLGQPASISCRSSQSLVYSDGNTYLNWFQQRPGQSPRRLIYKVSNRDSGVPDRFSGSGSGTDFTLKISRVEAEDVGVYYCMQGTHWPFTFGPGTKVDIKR
Q: With B13 as the binder, how does the A450 [2] read?
A: 0.9 A450

Q: And the Kd [4]?
A: 69 nM

Q: And the koff [4]?
A: 0.0051 s⁻¹

Q: What about the kon [4] of the same binder?
A: 74000 M⁻¹ s⁻¹

B14: Fab m116 (Fab, V domains shown)
VH: EVQLVQSGAEVKKPGSSVKVSCKASGGAFSSYAISWVRQAPGQGLEWMGGIIPIFGTANYAQKFQGRVTITADESTSTAYMELSSLRSEDTAVYYCARDSAGLGAWGQGTLVAVSS
VL: DIQMTQSPSSLSASVGDRVTITCRASQGISSALAWYQQKPGKAPKLLIYDASSLESGVPSRFSGSGSGTDFTLTISSLQPEDFATYYCQQFNSYPLTFGQGTRLEIKR
Q: How did the A450 [2] turn out when B14 was run?
A: 0.3 A450

B15: Fab m110 (Fab, V domains shown)
VH: EVQLVQSGGGLVQPGRSLRLSCAASGFTFDDYAMHWVRQAPGKGLEWVSAISGSGGSTYYADSVKGRFTISRDNSKNTLYLQMNSLRAEDTAVYYCASEGLPETDDAFDIWGQGTMVTVSS
VL: DVVMTQSPLSLPVTPGEPASISCRSSQSLLYSDGYNYLDWYLQKPGQSPQLLIYLGSRRASGVPDRFSGSGSGTDFTLKINTVEAEDVGVYYCMQGVEIPFTFGPGTKVEIKR
Q: How did the A450 [2] turn out when B15 was run?
A: 0 A450

B16: Fab m117 (Fab, V domains shown)
VH: QITLKESGPTLVKPTQTLTLTCTFSGFSLSTSGVGVGWIRQPPGKALEWLALIYWDDDKRYSPSLKSRLTITKDTSKNQVVLTMTNMDPVDTATYYCAHRESGPEFFQHWGQGTLVTVSS
VL: DVVMTQSPLSLPVTLGQPASISCNSSQSLVYSNGITYLNWFHQRPGQSPRRLIYQVSNWDSEVPDRFSGSGSATDFTLKISRVEADDVGIYYCMQGTHWPPTFGQGTRLEIKR
Q: How did the A450 [2] turn out when B16 was run?
A: 0 A450
